Experimental data from patent US20190375786A1, “STABLE PEPTIDES AND METHODS OF USE THEREOF” (Fred Hutchinson Cancer Research Center, priority 2016, published 2019).
Entries after “also recorded” stand apart in the source; their conditions may differ. Positions of bridges follow the written chain, without caps; N, C: chain ends. Residues, ends and D or L forms follow the SMILES beside them.

Key:
trypsin = trypsin (Sus scrofa, UniProt P00761); test: Trypsin digestion resistance of soluble peptide, RP-HPLC; assay type: in vitro ADME, porcine; parameters: purchased Sigma Aldrich 6567; conditions: 30 minutes at 37.5° C.
Protocol: (§1) Peptides were first suspended in 500 μl of ddH2O to a stock concentration of 2 mg/ml. Reactions were prepared by adding 12.5 μg of peptide from the stock solution to a 10 mM solution of DTT in PBS and allowed to incubate at room temperature for 30 minutes. Other reactions were prepared with 12.5 μg peptide and 500 U/ml trypsin in 25 mM Tris/75 mM NaCl buffer (pH 7.0) and incubated for 30 minutes at 37.5° C. These reactions were then quenched with 5 μg of soybean trypsin inhibitor (I) and, in some cases, 10 mM dithiothreitol (DTT). Reversed phase HPLC (RP-HPLC) was run on samples using an Agilent 1260 HPLC equipped with a C-18 Poroshell 120B column. Sample were analyzed by a gradient method with a mobile phase of Solvent A (water with 0.1% TFA) and Solvent B (acetonitrile with 0.1% TFA). Solvent B was ramped up from 5%-45% of the mobile phase over a period of 10 minutes. For testing pepsin digestion resistance, reactions were prepared with 12.5 μg peptide with or without 500 U/ml pepsin in simulated gastric fluid (SGF; pH 1.05; […] sodium chloride in 0.7% (v/v) hydrochloric acid) and were incubated for 30 minutes at 37.5° C. For testing temperature resistance, peptides were incubated at 70° C., 75° C., or 100° C. for one hour in 0.5 mM PBS, pelleted, and then the supernatant was analyzed by HPLC.
(§2) This example illustrates peptide stability in biological conditions including in the presence of reducing agents, proteases, oxidative conditions, acidic conditions, and simulated gastric fluids. […] Various peptides were suspended in 500 μl of ddH2O at a stock concentration of 2 mg/ml. This was then diluted in accord with the reaction conditions to prevent adverse buffering effects. Reactions were prepared with 12.5 μg peptide dissolved in solution and, in some samples, additionally suspended in a 10 mM solution of DTT, simulated gastric fluid (pH 1.05; […] sodium chloride in 0.7% (v/v) hydrochloric acid), 500 U pepsin (5000 U/ml pepsin), 50 U trypsin (500 U/ml trypsin) with 1 mg/ml inhibitor in PBS, or a combination of any of these conditions. All protease reactions were incubated for 30 min at room temperature and then quenched. Pepsin reactions were quenched by adding Tris base to a final concentration of 0.075 M. Trypsin reactions were quenched by adding excess soybean trypsin inhibitor. RP-HPLC was then run on samples using an Agilent 1260 HPLC equipped with a C-18 Poroshell 120B column. Sample were analyzed by a gradient method with a mobile phase of Solvent A (water with 0.1% TFA) and Solvent B (acetonitrile with 0.1% TFA). Solvent B was ramped up from 5%-45% of the mobile phase over a period of 10 minutes.
Soluble peptides were exposed to 500 U/mL porcine trypsin and analyzed by HPLC. Protease resistance was also assessed by using SDPR-displaying peptides. The SDPR vector is similar to the a surface display GFP FasL(SDGF) vector, but contains a C-terminal 6×His tag (SEQ ID NO: 180) and all basic or aromatic amino acid residues on the stalk removed. Protease resistance is then tested by incubation of cells displaying peptides with trypsin or chymotrypsin, followed by incubation in 10 mM DTT, and staining with an anti-6×His fluorophore-labeled antibody (“6×His” disclosed as SEQ ID NO: 180). If peptides are uncleaved, they retain the His tag and are stained with by the antibody. A control protease-sensitive knottin peptide (SK) was used as a positive control. Cells displaying peptides were treated with up to 40 μg/ml trypsin or chymotrypsin.
FIG. 21 illustrates high performance liquid chromatograph (HPLC) traces of peptides after trypsin digestion. […] The assay was carried out by reconstituting 1 mg porcine trypsin (Sigma Aldrich 6567) in 1 mL of 1 mM HCl. Trypsin was provided at a concentration of 10,000 u/mL and thus, 5 μl of stock solution was equivalent to using 50 U of trypsin in each reaction. Soybean trypsin inhibitor (SA T9128) was prepared at 1 mg/mL of in H2O. […]

pepsin = pepsin (Sus scrofa, UniProt P00791); test: Pepsin digestion resistance in simulated gastric fluid, RP-HPLC; assay type: in vitro ADME, porcine; parameters: purchased Sigma Aldrich P7012
Protocol: Peptides were first suspended in 500 ul of ddH2O to a stock concentration of 2 mg/ml. Reactions were prepared by adding 12.5 ug of peptide from the stock solution to a 10 mM solution of DTT in PBS and allowed to incubate at room temperature for 30 minutes. Other reactions were prepared with 12.5 μg peptide with or without 500 U/ml pepsin in simulated gastric fluid (SGF; pH 1.05; […] sodium chloride in 0.7% (v/v) hydrochloric acid) and were incubated for 30 minutes at 37.5° C. Some reactions were quenched with a final concentration of 100 mM Tris base and 10 mM dithiothreitol (DTT). Some reactions were performed in all of the above components, including simulated gastric fluid, pepsin, Tris, and DTT (referred to as SPTD). Reversed phase HPLC (RP-HPLC) was run on samples using an Agilent 1260 HPLC equipped with a C-18 Poroshell 120B column. Sample were analyzed by a gradient method with a mobile phase of Solvent A (water with 0.1% TFA) and Solvent B (acetonitrile with 0.1% TFA). Solvent B was ramped up from 5%-45% of the mobile phase over a period of 10 minutes. Peptides were detected at an absorbance of 214 nm and 280 nm.
as §1, §2
FIG. 20 illustrates high performance liquid chromatograph (HPLC) traces of peptides after pepsin digestion. […]

[1] = Resistance to elevated temperature, HPLC; assay type: physicochemical; conditions: HPLC; for resistance to incubation at 70° C. (in words): 70° C. for 1 hour; for resistance to incubation at 100° C. (in words): 100° C. for 1 hour
Protocol: as §1
This example illustrates peptide stability at high temperatures. Peptides were first suspended in 500 μl of ddH2O to a stock concentration of 2 mg/ml. Reactions were prepared by adding 6.25 μl of peptide from the stock solution with 95 μl ddH2O and incubated at room temperature, 70° C., or 100° C. for one hour in a Thermocycler. RP-HPLC was then run on samples using an Agilent 1260 HPLC equipped with a C-18 Poroshell 120B column. Sample were analyzed by a gradient method with a mobile phase of Solvent A (water with 0.1% TFA) and Solvent B (acetonitrile with 0.1% TFA). Solvent B was ramped up from 5%-45% of the mobile phase over a period of 10 minutes.

Chain of trypsin (P00761 9-231): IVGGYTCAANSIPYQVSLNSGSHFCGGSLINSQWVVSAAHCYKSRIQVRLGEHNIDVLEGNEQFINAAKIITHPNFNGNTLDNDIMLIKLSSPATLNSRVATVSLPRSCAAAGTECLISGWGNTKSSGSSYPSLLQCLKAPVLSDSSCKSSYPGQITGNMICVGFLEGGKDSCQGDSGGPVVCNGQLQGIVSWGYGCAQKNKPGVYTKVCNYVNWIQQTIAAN
Chain of pepsin (P00791 60-385): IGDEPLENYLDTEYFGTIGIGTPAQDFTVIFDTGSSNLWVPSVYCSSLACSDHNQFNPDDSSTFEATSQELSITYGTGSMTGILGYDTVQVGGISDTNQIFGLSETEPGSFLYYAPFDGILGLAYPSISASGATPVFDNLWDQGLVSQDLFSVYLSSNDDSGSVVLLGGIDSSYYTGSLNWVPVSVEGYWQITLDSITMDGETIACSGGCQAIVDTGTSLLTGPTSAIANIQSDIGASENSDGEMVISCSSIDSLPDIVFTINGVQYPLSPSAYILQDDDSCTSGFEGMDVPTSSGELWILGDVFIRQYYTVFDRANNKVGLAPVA

| Compound | resistance to incubation at 70° C. (in words) [1] | resistance to incubation at 100° C. (in words) [1] | also measured |
| --- | --- | --- | --- |
| CC[C@H](C)[C@H](NC(=O)[C@H](CCCNC(=N)N)NC(=O)[C@@H](NC(=O)[C@H](CO)NC(=O)CN)C(C)C)C(=O)N1CCC[C@H]1C(=O)N[C@H](C(=O)N[C@@H](CO)C(=O)N[C@H]1CSSC[C@@H]2NC(=O)[C@H](CCCCN)NC(=O)CNC(=O)[C@H](Cc3ccccc3)NC(=O)[C@H](CCCNC(=N)N)NC(=O)[C@H](CCSC)NC(=O)CNC(=O)[C@H](C)NC(=O)[C@H](CC(=O)O)NC(=O)[C@H](CCCCN)NC(=O)[C@@H]3CSSC[C@@H](C(=O)N[C@H](C(=O)N4CCC[C@H]4C(=O)N[C@@H](CCCCN)C(=O)O)[C@@H](C)O)NC(=O)[C@H](CC(=O)O)NC(=O)[C@H](CSSC[C@H](NC(=O)[C@H](CCC(N)=O)NC(=O)CNC(=O)[C@H](CO)NC(=O)[C@H](Cc4c[nH]cn4)NC(=O)[C@H](CCCCN)NC1=O)C(=O)N[C@@H](CC(C)C)C(=O)N[C@@H](CCCCN)C(=O)N1CCC[C@H]1C(=O)N3)NC(=O)[C@H](CCCCN)NC(=O)CNC(=O)[C@H](CC(N)=O)NC(=O)[C@H](CCSC)NC2=O)C(C)C [compound 24] (H-GSVRIPVSCKHSGQCLKPCKDAGMRFGKCMNGKCDCTPK-OH; disulfide 9-29, 15-34, 19-36) | – | – | Resistance to Trypsin (500 U/ml) (trypsin; 500 U/ml trypsin, HPLC peak vs untreated peptide): Low (A peptide classified as low indicates that the majority (over 75%) of the HPLC peak of the treated peptide disappeared as compared to the HPLC peak of the untreated peptide); Resistance to Pepsin (500 U/ml) (pepsin; 500 U/ml pepsin in SGF pH 1.05, 30 minutes at 37.5° C., HPLC peak vs untreated peptide): High (A peptide classified as high indicates that the majority (at least 75%) of the HPLC peak of the treated peptide is still present as compared to the HPLC peak of the untreated peptide) |
| GSEVIRCSGSKQCYGPCKQQTGCTNSKCMNKVCKCYGCG [SEQ ID NO: 23] | resistant | various degrees of degradation | – |
| GSACQFWSCNSSCISRGYRQGYCWGIQYKYCQCQ [SEQ ID NO: 17] | – | resistant | – |
| CC[C@H](C)[C@@H]1NC(=O)[C@@H](NC(=O)[C@H](CC(=O)O)NC(=O)[C@H](CCCCN)NC(=O)[C@H](CCC(=O)O)NC(=O)[C@H](CO)NC(=O)[C@H](CO)NC(=O)CN)CSSC[C@@H]2NC(=O)[C@@H]3CSSC[C@@H](C(=O)N[C@@H](CCCNC(=N)N)C(=O)O)NC(=O)[C@H](CCCNC(=N)N)NC(=O)[C@H](CCCCN)NC(=O)[C@H](CCC(=O)O)NC(=O)[C@@H]4CCCN4C(=O)[C@H](CC(N)=O)NC(=O)[C@H]([C@@H](C)O)NC(=O)CNC(=O)[C@H](CCCNC(=N)N)NC(=O)[C@H](CCCNC(=N)N)NC(=O)[C@H](CO)NC(=O)[C@H](CSSC[C@H](NC(=O)[C@H](CCCNC(=N)N)NC(=O)[C@H](CCC(N)=O)NC(=O)[C@H](CC(C)C)NC(=O)[C@H](Cc4c[nH]cn4)NC(=O)[C@H](CCCCN)NC1=O)C(=O)N[C@@H](CCCNC(=N)N)C(=O)N[C@@H](CCC(=O)O)C(=O)N[C@@H](CC(N)=O)C(=O)N[C@@H](CCCCN)C(=O)N[C@@H](CC(=O)O)C(=O)N3)NC(=O)[C@H](CCCCN)NC(=O)[C@H](CCCCN)NC(=O)[C@H](CO)NC2=O [SEQ ID NO: 29] (H-GSSEKDCIKHLQRCRENKDCCSKKCSRRGTNPEKRCR-OH; disulfide 7-21, 14-25, 20-36) | – | – | resistance to pepsin digestion (in words) (pepsin; 500 U/ml pepsin (50 U per reaction) in SGF, 30 minutes at 37.5° C., HPLC): resistant |
| GSACLAEYQKCEGSTVPCCPGLSCSAGRFRKTKLCTK [SEQ ID NO: 25] | resistant | various degrees of degradation | – |
| CC[C@H](C)[C@@H]1NC(=O)[C@H](CCCCN)NC(=O)[C@@H](NC(=O)[C@H](CCCCN)NC(=O)[C@@H](NC(=O)[C@H](CC(N)=O)NC(=O)[C@@H](NC(=O)[C@@H](NC(=O)[C@@H](NC(=O)CNC(=O)[C@H](CO)NC(=O)CN)C(C)C)[C@@H](C)CC)[C@@H](C)CC)C(C)C)CSSC[C@@H]2NC(=O)[C@H](CCCCN)NC(=O)CNC(=O)[C@H](Cc3ccccc3)NC(=O)[C@H](CCCNC(=N)N)NC(=O)[C@H](CCSC)NC(=O)CNC(=O)[C@H](C)NC(=O)[C@H](CCCCN)NC(=O)[C@H](CCCCN)NC(=O)[C@@H]3CSSC[C@@H](C(=O)N[C@H](C(=O)N4CCC[C@H]4C(=O)N[C@@H](CCCCN)C(=O)O)[C@@H](C)O)NC(=O)[C@H](Cc4c[nH]cn4)NC(=O)[C@H](CSSC[C@H](NC(=O)[C@H](CCC(N)=O)NC(=O)[C@H](CCCNC(=N)N)NC(=O)[C@H](CO)NC1=O)C(=O)N[C@@H](CC(C)C)C(=O)N[C@@H](CCC(=O)O)C(=O)N1CCC[C@H]1C(=O)N3)NC(=O)[C@H](CCCCN)NC(=O)CNC(=O)[C@H](CC(N)=O)NC(=O)[C@H](CCSC)NC2=O [SEQ ID NO: 57] | – | – | resistance to trypsin digestion (in words) (trypsin; 500 U/ml trypsin (50 U per reaction), HPLC): highly resistant; also recorded: fully resistant |
